B1: Ribonuclease HI, P0A7Y4 (parent)
chain: MLKQVEIFTDGSCLGNPGPGGYGAILRYRGREKTFSAGYTRTTNNRMELMAAIVALEALKEHCEVILSTDSQYVRQGITQWIHNWKKRGWKTADKKPVKNVDLWQRLDAALGQHQIKWEWVKGHAGHPENERCDELARAAAMNPTLEDTGYQVEV

Variants of: B1
Conditions: Escherichia coli (strain K12), Thermal, CD, NaCl 0.1 M, reversible: yes, structure 2RN2, whole UniProt chain shown
[1] = pH 3, 49.8 °C, glycine-HCl 10 mM
[2] = pH 5.5, 52 °C, Sodium acetate 20 mM

Variant: MLKQVEIFTDGSCLGNPGPGGYGAILRYRGREKTFSAGYTRTTNNRMELMAAIVALEALKEHCEVILSTDSQYARQGITQWIHNWKKRGWKTADKKPVKNVDLWQRLDAALGQHQIKWEWVKGHAGHPENERCDELARAAAMNPTLEDTGYQVEV [V74A]
- ddG of mutation (higher = less stable) [1]: 2.2 kcal/mol
- Tm (pH 3, glycine-HCl 10 mM): 42.2 °C
- change of melting temperature, mutant - wild type (higher = more stable) (pH 3, glycine-HCl 10 mM): -7.6 °C
- ddG of mutation (higher = less stable) [2]: 3.4 kcal/mol
- Tm (pH 5.5, Sodium acetate 20 mM): 39.3 °C
- change of melting temperature, mutant - wild type (higher = more stable) (pH 5.5, Sodium acetate 20 mM): -12.7 °C

Variant: MLKQVEIFTDGSCLGNPGPGGYGAILRYRGREKTFSAGYTRTTNNRMELMAAIVALEALKEHCEVILSTDSQYLRQGITQWIHNWKKRGWKTADKKPVKNVDLWQRLDAALGQHQIKWEWVKGHAGHPENERCDELARAAAMNPTLEDTGYQVEV [V74L]
- ddG of mutation (higher = less stable) [1]: -1.1 kcal/mol
- Tm (pH 3, glycine-HCl 10 mM): 53.5 °C
- change of melting temperature, mutant - wild type (higher = more stable) (pH 3, glycine-HCl 10 mM): 3.7 °C
- ddG of mutation (higher = less stable) [2]: -0.9 kcal/mol
- Tm (pH 5.5, Sodium acetate 20 mM): 55.3 °C
- change of melting temperature, mutant - wild type (higher = more stable) (pH 5.5, Sodium acetate 20 mM): 3.3 °C

Variant: MLKQVEIFTDGSCLGNPGPGGYGAILRYRGREKTFSAGYTRTTNNRMELMAAIVALEALKEHCEVILSTDSQYIRQGITQWIHNWKKRGWKTADKKPVKNVDLWQRLDAALGQHQIKWEWVKGHAGHPENERCDELARAAAMNPTLEDTGYQVEV [V74I]
- ddG of mutation (higher = less stable) [1]: -0.7 kcal/mol
- Tm (pH 3, glycine-HCl 10 mM): 52.2 °C
- change of melting temperature, mutant - wild type (higher = more stable) (pH 3, glycine-HCl 10 mM): 2.4 °C
- ddG of mutation (higher = less stable) [2]: -0.6 kcal/mol
- Tm (pH 5.5, Sodium acetate 20 mM): 54.1 °C
- change of melting temperature, mutant - wild type (higher = more stable) (pH 5.5, Sodium acetate 20 mM): 2.1 °C

— FireProtDB (doi:10.1021/bi00416a052)
